Article PMC10963267 (2023)
Residue numbers refer to the chain shown, from its start. Numbers in names are those of the source.

B1: anti-HER2 scFv G98A, ribosome-displayed on the flow cell (scFv, V domains shown)
VH: QVQLVQSGAEVKKPGESLKISCKGSGYSFTSYWIAWVRQMPGKGLEYMGLIYPGDSDTKYSPSFQGQVTISVDKSVSTAYLQWSSLKPSDSAVYFCARHDVAYCSSSNCAKWPEYFQHWGQGTLVTVSS
VL: QSVLTQPPSVSAAPGQKVTISCSGSSSNIGNNYVSWYQQLPGTAPKLLIYGHTNRPAGVPDRFSGSKSGTSASLAISGFRSEDEADYYCASWDYTLSGWVFGGGTKLTVL
B2: anti-HER2 Fab HER20006 (Fab, V domains shown)
VH: B1 VH with A102G, Y103W, S105T
VL: B1 VL
B3: anti-HER2 Fab G98A (Fab, V domains shown)
VH: B1 VH
VL: B1 VL
B4: anti-HEL nanobody C2 (VHH)
VHH: QVQLQESGGGLVQAGGSLRLSCAASGNISADASMGWYRQAPGKEREFVAAIARGATTYYADSVKGRFTISRDNAKNTVYLQMNSLKPEDTAVYYCAVDQYDVTKRYIGHIYWGQGTQVTVSS
B5: anti-HEL nanobody C1 (VHH)
VHH: QVQLQESGGGLVQAGGSLRLSCAASGSIFWAGYMGWYRQAPGKEREFVAAIDYGANTYYADSVKGRFTISRDNAKNTVYLQMNSLKPEDTAVYYCAVDRQPYYRRDNSHLYWGQGTQVTVSS
B6: anti-HER2 Fab HER20010 (Fab, V domains shown)
VH: B1 VH with N108R, A110L, K111D
VL: B1 VL
B7: anti-HER2 Fab HER20009 (Fab, V domains shown)
VH: B1 VH with N108R, A110L, K111E
VL: B1 VL
B8: anti-HER2 Fab HER20015 (Fab, V domains shown)
VH: B1 VH with A102G, S105D, S106T, S107P, N108T, A110D
VL: B1 VL
B9: anti-HER2 Fab HER20007 (Fab, V domains shown)
VH: B1 VH with A102G, S105M
VL: B1 VL
B10: anti-HER2 Fab HER20011 (Fab, V domains shown)
VH: B1 VH with A102G, Y103L
VL: B1 VL
B11: anti-HER2 Fab HER20008 (Fab, V domains shown)
VH: B1 VH with S105D, S107D, N108R
VL: B1 VL
B12: anti-HEL nanobody M15, ribosome-displayed on the flow cell (VHH)
VHH: QVQLQESGGGLVQAGGSLRLSCAASGTISSQKLMGWYRQAPGKEREFVAAINDGATTNYADSVKGRFTISRDNAKNTVYLQMNSLKPEDTAVYYCAAYYDVRGYYWGTFGYWGQGTQVTVSS
B13: anti-HEL nanobody M5, ribosome-displayed on the flow cell (VHH)
VHH: QVQLQESGGGLVQAGGSLRLSCAASGSIFYYTDMGWYRQAPGKEREFVASIGYGGITYYADSVKGRFTISRDNAKNTVYLQMNSLKPEDTAVYYCAVQRSFESYGYWGHVYWGQGTQVTVSS
B14: anti-HEL nanobody M6, ribosome-displayed on the flow cell (VHH)
VHH: B13 VHH with F29S, Y30R, Y31D, T32P, G52S, Y53G, G55T, I56T

target: T1, human epidermal growth factor receptor 2 (HER2), biotinylated (human, UniProt P04626 23-652, biotin); test: SPR

Row | Kd | Binder
1 | 320 nM | B1

target: T1, human epidermal growth factor receptor …; test: BLI

Row | Kd | Binder
2 | 0.85 nM | B2

target: T1, human epidermal growth factor receptor …; test: not given

Row | Kd | Binder
3 | 24 nM | B1

target: T2, HER2 extracellular domain (Homo sapiens, UniProt P04626); test: flow

Row | apparent Kd (screen) | Binder
4 | 19.6 nM | HDVGQCDSSNCATWPEYFQH [HER20019]
5 | 19.4 nM | HDVGYCSSSNCAKWPEYFQH [HER20002]
6 | 65.9 nM | HDVAYCDDPTCAYWPEYFQH [HER20014]
7 | 24.4 nM | HDVGYCSESACQQWPEYFQH [HER20018]
8 | 1350 nM | HDVGQCDSSNCAAWPEYFQH [HER20017]
9 | 44.5 nM | HDVAYCDSDRCAKWPEYFQH [HER20008]
10 | 40.6 nM | HDVGLCSSSNCAKWPEYFQH [HER20011]
11 | 11.2 nM | HDVAYCSSSRCLEWPEYFQH [HER20009]
12 | 31 nM | HDVGYCDTPTCDKWPEYFQH [HER20015]
13 | 14.8 nM | HDVGYCDTPTCATWPEQFDH [HER20022]
14 | 17.7 nM | HDTGYCDTPTCAKWPEYFQH [HER20021]
15 | 41.1 nM | HDVGYCMSSNCAKWPEYFQH [HER20007]
16 | 31.6 nM | HDVGYCDTESCEKWPEYFQH [HER20023]
17 | 17.9 nM | HDVGQCDSSNCETWPEYFQH [HER20024]
18 | 14.3 nM | HDVGYCDTPTCDKWPEYFTH [HER20020]
19 | 74.2 nM | HDVGYCSSHRCETWPEYFQH [HER20012]
20 | 4.78 nM | HDVGYCDSSMCQMWPEYFQH [HER20026]
21 | 10 nM | HDVGYCSTSRCLTWPEYFQH [HER20013]
22 | 151 nM | HDVGWCTSSNCAKWPEYFQH [HER20006]
23 | 8.78 nM | HDVGYCDTPTCNKWPEYFQH [HER20025]
24 | 17.7 nM | HDVAYCSSSRCLDWPEYFQH [HER20010]
25 | 106 nM | HDVGPCDTSTCAKWPEYFQH [HER20016]

target: T1, human epidermal growth factor receptor …; test: SPR; remark: another data set of the same source

Row | Kd | Binder
26 | 320 nM | B3

target: T3, hen egg lysozyme (HEL), biotinylated (hen, UniProt P00698 19-147, biotin); test: BLI
T3 sequence (P00698 19-147): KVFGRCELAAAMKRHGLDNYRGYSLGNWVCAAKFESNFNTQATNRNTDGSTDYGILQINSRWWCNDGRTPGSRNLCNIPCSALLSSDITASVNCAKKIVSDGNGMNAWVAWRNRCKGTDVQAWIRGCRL

Row | Kd | Binder
27 | 59.8 nM | B4
28 | 67.4 nM | B5

target: T1, human epidermal growth factor receptor …; test: BLI; remark: another data set of the same source

Row | Kd | Binder
29 | 1.06 nM | B6
30 | 1.04 nM | B7
31 | 0.2 nM | B8
32 | 2.08 nM | B9
33 | 5.25 nM | B10
34 | 2.68 nM | B11

target: T3, hen egg lysozyme (HEL), biotinylated; test: deep screening KDapp

Row | Kd | Binder
35 | 64.4 nM | B12
36 | 106 nM | B13
37 | 63.6 nM | B14
38 | 11900 nM | B4
39 | 11900 nM | B5

target: T2, HER2 extracellular domain; test: Octet

Row | Kd | Binder
40 | 0.79 nM | HDVGQCDSSNCATWPEYFQH [HER20019]
41 | 1.65 nM | HDVGYCSSSNCAKWPEYFQH [HER20002]
42 | 0.996 nM | HDVAYCDDPTCAYWPEYFQH [HER20014]
43 | 2.26 nM | HDVGYCSESACQQWPEYFQH [HER20018]
44 | 1.46 nM | HDVGQCDSSNCAAWPEYFQH [HER20017]
45 | 2.68 nM | HDVAYCDSDRCAKWPEYFQH [HER20008]
46 | 1.04 nM | HDVAYCSSSRCLEWPEYFQH [HER20009]
47 | 0.2 nM | HDVGYCDTPTCDKWPEYFQH [HER20015]
48 | 0.183 nM | HDVGYCDTPTCATWPEQFDH [HER20022]
49 | 3.44 nM | HDVGQCDSSNCAKWPEYFQH [HER20004]
50 | 0.215 nM | HDTGYCDTPTCAKWPEYFQH [HER20021]
51 | 2.08 nM | HDVGYCMSSNCAKWPEYFQH [HER20007]
52 | 0.578 nM | HDVGYCDTESCEKWPEYFQH [HER20023]
53 | 0.294 nM | HDVGYCDTPTCDKWPEYFTH [HER20020]
54 | 0.591 nM | HDVGYCSSHRCETWPEYFQH [HER20012]
55 | 0.465 nM | HDVGYCDSSMCQMWPEYFQH [HER20026]
56 | 1.86 nM | HDVAYCDTPTCAKWPEYFQH [HER20005]
57 | 0.85 nM | HDVGWCTSSNCAKWPEYFQH [HER20006]
58 | 2.88 nM | HDVAYCSSSRCLTWPEYFQH [HER20003]
59 | 1.06 nM | HDVAYCSSSRCLDWPEYFQH [HER20010]
60 | 1.41 nM | HDVGPCDTSTCAKWPEYFQH [HER20016]
